Test results from paper PMC4066579 (Nature methods, 2009).
Read-outs that look alike come from different tables or passages of the source.

Key:
native MS [1] = biological target: the molecule itself; assay: native MS
native MS [2] = biological target: the molecule itself; assay: native MS; remark: listed apart in the source

B1: MacB (natural protein, UniProt P75831 1-648, looked up)
chain: MTPLLELKDIRRSYPAGDEQVEVLKGISLDIYAGEMVAIVGASGSGKSTLMNILGCLDKATSGTYRVAGQDVATLDADALAQLRREHFGFIFQRYHLLSHLTAEQNVEVPAVYAGLERKQRLLRAQELLQRLGLEDRTEYYPAQLSGGQQQRVSIARALMNGGQVILADEPTGALDSHSGEEVMAILHQLRDRGHTVIIVTHDPQVAAQAERVIEIRDGEIVRNPPAIEKVNVTGGTEPVVNTVSGWRQFVSGFNEALTMAWRALAANKMRTLLTMLGIIIGIASVVSIVVVGDAAKQMVLADIRSIGTNTIDVYPGKDFGDDDPQYQQALKYDDLIAIQKQPWVASATPAVSQNLRLRYNNVDVAASANGVSGDYFNVYGMTFSEGNTFNQEQLNGRAQVVVLDSNTRRQLFPHKADVVGEVILVGNMPARVIGVAEEKQSMFGSSKVLRVWLPYSTMSGRVMGQSWLNSITVRVKEGFDSAEAEQQLTRLLSLRHGKKDFFTWNMDGVLKTVEKTTRTLQLFLTLVAVISLVVGGIGVMNIMLVSVTERTREIGIRMAVGARASDVLQQFLIEAVLVCLVGGALGITLSLLIAFTLQLFLPGWEIGFSPLALLLAFLCSTVTGILFGWLPARNAARLDPVDALARE
stoichiometry N (native MS [1]): 2

B2: MexB (natural protein, Pseudomonas aeruginosa strain PAO1, UniProt P52002 1-1046, looked up)
chain: MSKFFIDRPIFAWVIALVIMLAGGLSILSLPVNQYPAIAPPAIAVQVSYPGASAETVQDTVVQVIEQQMNGIDNLRYISSESNSDGSMTITVTFEQGTDPDIAQVQVQNKLQLATPLLPQEVQRQGIRVTKAVKNFLMVVGVVSTDGSMTKEDLSNYIVSNIQDPLSRTKGVGDFQVFGSQYSMRIWLDPAKLNSYQLTPGDVSSAIQAQNVQISSGQLGGLPAVKGQQLNATIIGKTRLQTAEQFENILLKVNPDGSQVRLKDVADVGLGGQDYSINAQFNGSPASGIAIKLATGANALDTAKAIRQTIANLEPFMPQGMKVVYPYDTTPVVSASIHEVVKTLGEAILLVFLVMYLFLQNFRATLIPTIAVPVVLLGTFGVLAAFGFSINTLTMFGMVLAIGLLVDDAIVVVENVERVMAEEGLSPREAARKSMGQIQGALVGIAMVLSAVFLPMAFFGGSTGVIYRQFSITIVSAMALSVIVALILTPALCATMLKPIEKGDHGEHKGGFFGWFNRMFLSTTHGYERGVASILKHRAPYLLIYVVIVAGMIWMFTRIPTAFLPDEDQGVLFAQVQTPPGSSAERTQVVVDSMREYLLEKESSSVSSVFTVTGFNFAGRGQSSGMAFIMLKPWEERPGGENSVFELAKRAQMHFFSFKDAMVFAFAPPSVLELGNATGFDLFLQDQAGVGHEVLLQARNKFLMLAAQNPALQRVRPNGMSDEPQYKLEIDDEKASALGVSLADINSTVSIAWGSSYVNDFIDRGRVKRVYLQGRPDARMNPDDLSKWYVRNDKGEMVPFNAFATGKWEYGSPKLERYNGVPAMEILGEPAPGLSSGDAMAAVEEIVKQLPKGVGYSWTGLSYEERLSGSQAPALYALSLLVVFLCLAALYESWSIPFSVMLVVPLGVIGALLATSMRGLSNDVFFQVGLLTTIGLSAKNAILIVEFAKELHEQGKGIVEAAIEACRMRLRPIVMTSLAFILGVVPLAISTGAGSGSQHAIGTGVIGGMVTATVLAIFWVPLFYVAVSTLFKDEASKQQASVEKGQ
stoichiometry N (native MS [1]): 3

B3: EmrE-EFE(1–113), unmodified (free N-terminal methionine) (natural protein)
chain: MNPYIYLGGAILAEVIGTTLMKFSEGFTRLWPSVGTIICYCASFWLLAQTLAYIPTGIAYAIWSGVGIVLISLLSWGFFGQRLDLPAIIGMMLICAGVLIINLLSRSTPHEFE
stoichiometry N (native MS [2]): 2

B4: EmrE-EFE(1–113), N-terminally formylated (natural protein)
chain: B3 chain
modifications: formylation at an N-terminal methionine
stoichiometry N (native MS [2]): 2
